For the assay, the target named is T1, Escherichia coli trigger factor (Escherichia coli), P0A850.
T1 chain: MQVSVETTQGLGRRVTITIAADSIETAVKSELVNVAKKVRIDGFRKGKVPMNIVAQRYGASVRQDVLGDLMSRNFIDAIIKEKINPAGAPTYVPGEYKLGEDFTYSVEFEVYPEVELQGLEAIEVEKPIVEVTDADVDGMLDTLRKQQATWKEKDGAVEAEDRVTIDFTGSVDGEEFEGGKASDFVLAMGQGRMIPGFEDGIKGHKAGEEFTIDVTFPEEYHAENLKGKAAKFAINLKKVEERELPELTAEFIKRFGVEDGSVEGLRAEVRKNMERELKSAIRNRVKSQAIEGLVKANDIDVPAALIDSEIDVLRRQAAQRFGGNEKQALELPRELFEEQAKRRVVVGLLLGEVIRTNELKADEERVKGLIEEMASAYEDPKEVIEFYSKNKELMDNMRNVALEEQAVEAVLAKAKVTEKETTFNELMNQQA
The assay is described as follows: SAXS (static); five to eight protein concentrations; 20 mM Tris pH 7.5, 150 mM KCl; 20 °C; BM29 beamline, ESRF; self-association. Conditions: remark: other sources report otherwise.

B1: Escherichia coli trigger factor, P0A850 1-432 (natural protein)
chain: T1 chain
The stoichiometry N is the number of molecules, sites or subunits per partner or assembly. B1 came in with a stoichiometry N of 2.
